In patent publication US10746644B2, “Vitro method and apparatus for analysing the behaviour of substances in simulated physiological environment” (Hoffmann-La Roche Inc., priority 2014, dated 2020):

Assay: Effect of dialysis membrane MWCO on diffusion of BSA and IgG from VH-compartment to FT-compartment
Assay type: in vitro ADME, porcine
Settings: DM-1 50 kDa MWCO compared with DM-1 100 kDa MWCO; DM-2 100 kDa; HA gel 0.6% w/v
Procedure: Diffusion of bovine serum albumin (BSA) and Immunoglobulin G (IgG) in the flow direction from VH-compartment to FT-compartment was investigated by varying MWCO of the dialysis membrane. The experiment was performed similarly as described in example 1 with minor modifications. Two different MWCO dialysis membranes were used as DM-1, with MWCO 50 kDa and 100 kDa, whereas the MWCO of DM-2 was kept constant at 100 kDa. VH-compartment was filled with 3.5 mL of sterile porcine VH and GM-compartment was filled with about 3 mL of sterile HA gel (0.6% w/v). FT-compartment was filled with sterile PBS.

Substance: FITC-BSA: FITC-labelled bovine serum albumin (66 kDa), globular macromolecule
- diffusion into FT compartment: restrained the diffusion of both IgG and BSA significantly
